The target in assay [1] is LI-cadherin ECD (Homo sapiens) (UniProt Q12864). Conditions: cited from earlier work.
Assay [2] deals with T1, LI-cadherin C-terminally tagged with cyan (LI-CFP) or yellow (LI-YFP) fluorescent protein (UniProt Q9R100 26-827).
T1 construct: LI-cadherin (cadherin-17); Two differently tagged copies of the same protein (CFP donor, YFP acceptor), co-expressed for FRET; In the control with EGFR-CFP only the YFP-tagged copy was present; also called LI-cadherin-CFP fusion protein; LI-cadherin-YFP fusion protein; source: HEK293, transfected (FuGENE-6), in living cells; not shown: CFP (on one copy) or YFP (on the other copy), C-terminal, kept
T1 sequence (looked up): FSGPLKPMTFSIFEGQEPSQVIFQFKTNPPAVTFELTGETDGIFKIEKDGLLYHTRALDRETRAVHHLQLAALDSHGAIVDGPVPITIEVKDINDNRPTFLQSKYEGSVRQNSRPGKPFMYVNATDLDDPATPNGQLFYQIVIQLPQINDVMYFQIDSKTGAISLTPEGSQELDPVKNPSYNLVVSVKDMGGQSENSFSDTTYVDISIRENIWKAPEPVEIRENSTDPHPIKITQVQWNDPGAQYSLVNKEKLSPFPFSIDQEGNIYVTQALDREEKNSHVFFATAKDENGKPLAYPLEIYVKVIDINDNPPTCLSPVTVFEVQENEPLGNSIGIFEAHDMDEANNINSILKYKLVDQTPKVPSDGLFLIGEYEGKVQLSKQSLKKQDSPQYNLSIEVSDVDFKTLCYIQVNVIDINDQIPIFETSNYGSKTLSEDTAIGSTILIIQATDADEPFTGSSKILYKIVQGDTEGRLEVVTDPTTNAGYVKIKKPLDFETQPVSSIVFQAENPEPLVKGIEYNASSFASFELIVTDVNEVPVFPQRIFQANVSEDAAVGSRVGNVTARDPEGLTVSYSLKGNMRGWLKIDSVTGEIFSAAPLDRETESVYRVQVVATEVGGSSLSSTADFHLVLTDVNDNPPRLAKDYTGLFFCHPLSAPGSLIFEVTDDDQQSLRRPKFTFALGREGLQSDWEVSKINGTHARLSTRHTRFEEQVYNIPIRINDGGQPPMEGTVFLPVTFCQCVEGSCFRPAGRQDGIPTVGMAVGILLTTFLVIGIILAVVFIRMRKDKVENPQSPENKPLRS
Put plainly: FRET or BRET; FRET competition: twofold excess of untagged LI-cadherin coexpressed with LI-CFP and LI-YFP in HEK293 cells; acceptor photobleaching. The settings on record: partners not purified.

For LI-cadherin ECD (from UniProt Q12864), the Kd (in general, the equilibrium constant for the complex coming apart) in assay [1] is 27 µM.

B1: untagged LI-cadherin (natural protein, UniProt Q9R100 26-827, looked up)
chain: FSGPLKPMTFSIFEGQEPSQVIFQFKTNPPAVTFELTGETDGIFKIEKDGLLYHTRALDRETRAVHHLQLAALDSHGAIVDGPVPITIEVKDINDNRPTFLQSKYEGSVRQNSRPGKPFMYVNATDLDDPATPNGQLFYQIVIQLPQINDVMYFQIDSKTGAISLTPEGSQELDPVKNPSYNLVVSVKDMGGQSENSFSDTTYVDISIRENIWKAPEPVEIRENSTDPHPIKITQVQWNDPGAQYSLVNKEKLSPFPFSIDQEGNIYVTQALDREEKNSHVFFATAKDENGKPLAYPLEIYVKVIDINDNPPTCLSPVTVFEVQENEPLGNSIGIFEAHDMDEANNINSILKYKLVDQTPKVPSDGLFLIGEYEGKVQLSKQSLKKQDSPQYNLSIEVSDVDFKTLCYIQVNVIDINDQIPIFETSNYGSKTLSEDTAIGSTILIIQATDADEPFTGSSKILYKIVQGDTEGRLEVVTDPTTNAGYVKIKKPLDFETQPVSSIVFQAENPEPLVKGIEYNASSFASFELIVTDVNEVPVFPQRIFQANVSEDAAVGSRVGNVTARDPEGLTVSYSLKGNMRGWLKIDSVTGEIFSAAPLDRETESVYRVQVVATEVGGSSLSSTADFHLVLTDVNDNPPRLAKDYTGLFFCHPLSAPGSLIFEVTDDDQQSLRRPKFTFALGREGLQSDWEVSKINGTHARLSTRHTRFEEQVYNIPIRINDGGQPPMEGTVFLPVTFCQCVEGSCFRPAGRQDGIPTVGMAVGILLTTFLVIGIILAVVFIRMRKDKVENPQSPENKPLRS
notes: LI-cadherin (cadherin-17), untagged wild type; The expression construct of the untagged protein is not described in the methods; also called LIwt; wild-type LI; source: HEK293, transfected, in living cells (twofold excess, coexpressed with LI-CFP and LI-YFP)
With B1, the “FRET efficiency of LI-CFP/LI-YFP with a twofold excess of untagged LI-cadherin” value in assay [2] is 5.2%.

(Values after publication PMC3478510, “LI-cadherin cis-dimerizes in the plasma membrane Ca^2+ independently and forms highly dynamic trans-contacts” (Cellular and Molecular Life Sciences: CMLS, 2012).)
